Measured values: US11612667B2, “Enhanced in vivo targeting of radiolabelled peptides with the means of enzyme inhibitors” (Advanced Accelerator Applications USA, Inc., priority 2011, dated 2023)
Non-standard residues stand in square brackets, D forms with d. Residues, ends and D or L forms follow the SMILES beside them. *: point of attachment. DOTA = O=C(O)CN1CCN(CC(=O)O)CCN(CC(=O)*)CCN(CC(=O)O)CC1; Nle = CCCC[C@H](N)C(=O)O; X1 = NCCNCC(CNCCN)C(=O)*; AEEA = NCCOCCOCC(=O)O; βAla = NCCC(=O)O; For = O=C*

Assays:
[1] = set-up: species or system Swiss albino mice; conditions: mouse, in vivo, 5 min
Procedure: Whole blood was collected 5 min postinjection (pi), blood cells were removed and major proteins were precipitated and then the supernatant was analyzed by RP-HPLC coupled to a gamma detector.
Alternatively, the dual NEP and ACE inhibitor racecadotril (race; 2.5 mg) was ip injected 45-60 min prior to radioligand injection and the same procedure was followed as described above.
To test the in vivo stability, ^111In-DOTA-MG11 was injected in the tail vein of Swiss albino mice and 5 min afterwards blood was collected, blood cells were removed and major proteins were precipitated and then the supernatant was analyzed by RP-HPLC coupled to a gamma detector. As shown in the radiochromatogram of FIG. 3A, the major part of ^111In-DOTA-MG11 was consumed during this period (<5% intact peptide still detected), in agreement with previous reports. Further, ^111In-DOTA-MG11 was co-injected together with PA or injected 1 h after ip injection of race (2.5 mg) in more mice and the same protocol was followed as above. Amazingly, the percentage of ^111In-DOTA-MG11 found intact in the blood of the PA-treated mice was raised from <5% to 75% and in the race-pretreated mice to 73%.
For ex vivo blood analysis, [^99mTc]Demotensin 6 was injected in the tail vein of Swiss albino mice and blood collected 5 min thereafter was analyzed as previously described. The effect of PA on stability was studied by co-injection of PA along with [^99mTc]Demotensin 6. Furthermore, a PA dose study was performed with the PA injected dose ranging from 300 μg down to 0.03 μg and results are summarized in FIG. 4A.
Additional groups of radiopeptides with relevance for nuclear medicine applications have been studied for their in vivo stability. Radiopeptides were injected in the tail vein of healthy mice, either alone, or with a NEP inhibitor (PA—300 μg), or with a NEP (PA—300 μg) and an ACE (Lis—300 μg) inhibitor mixture; alternatively, another NEP inhibitor prodrug (race—2.5 mg) was ip injected in the animals ˜45 min prior to radioligand injection. Blood was collected 5 min afterwards, and analyzed by RP-HPLC after suitable preparation, as previously described.

[2] = test system: human prostate adenocarcinoma PC-3 xenografts (GRPR+); set-up: species or system SCID mice; conditions: mouse, in vivo; for uptake in PC-3 tumor: SCID, 4 h
Procedure: FIG. 6C: Biodistribution of [^99mTc]SAR-NC1 in SCID mice bearing human prostate adenocarcinoma PC-3 xenografts (GRPR^+) at 4 h pi.
In FIG. 6B and FIG. 7B, the biodistribution of [^99mTc]SAR-NC1 and [^99mTc]SAR-NC6 in SCID mice bearing human prostate adenocarcinoma PC-3 xenografts (GRPR^+) at 4 h respectively, after injection of the radioligand alone or with co-injection of PA (300 μg) are shown.
It is interesting to note that with co-injection of the blocker and PA tumor values were minimal (0.69±0.03% ID/g) showing that PA provoked a GRPR-mediated increase in tumor uptake.
The effect of PA-induced stabilization of [^99mTc]Demobesin 1 on tumor uptake is illustrated in FIG. 10B, showing the biodistribution at 4 h pi after injection of [^99mTc]Demobesin 1 in SCID mice bearing human PC-3 xenografts (GRPR^+) (control), or with PA (300 μg).

[3] = mouse; cited from earlier work
WiDr tumors (hNTS1+) = test: Biodistribution / tumor uptake in SCID mice bearing WiDr tumors (hNTS1+); conditions: 4 h pi
Procedure: FIG. 4H: Biodistribution of [^99mTc]Demotensin 6 in SCID mice bearing WiDr tumors (hNTS1^+) at 4 h pi. Bars represent average uptake as mean % injected dose per gram (% ID/g) of at least 4 animals with standard deviation (control at 4 h 2nd bars); three additional groups of animals received either excess NT(1-13) and PA (100 μg blocker and 300 μg PA—first bars), or PA (300 μg PA—3rd bars) or PA and Lis (300 μg PA+250 μg Lis—4th bars). Bl=blood, Li=liver, He=heart, Ki=kidneys, St=stomach, In=intestines, Sp=spleen, Mu=muscle, Lu=lungs, Pa=pancreas, Fe=femur and Tu=WiDr tumor.
FIG. 5H: Biodistribution of [^99mTc]Demotensin 1 in SCID mice bearing WiDr tumors (hNTS1+) at 4 h pi. Bars represent average uptake as mean % injected dose per gram (% ID/g) of at least 4 animals with standard deviation (control at 4 h 2nd bars); three additional groups of animals received either excess NT and PA (100 μg and 300 μg PA, respectively—first bars), or PA (300 μg PA—3rd bars) or PA and Lis (300 μg PA+300 μg Lis—4th bars). Bl=blood, Li=liver, He=heart, Ki=kidneys, St=stomach, In=intestines, Sp=spleen, Mu=muscle, Lu=lungs, Pa=pancreas, Fe=femur and Tu=WiDr tumor.
In FIG. 4B the effects of such regimens on SCID mice bearing the human colon adenocarcinoma WiDr tumor (a hNTS1R^+ tumor) on enhancing in vivo tumor targeting are presented.
In FIG. 5B the effects of above regimens on SCID mice bearing WiDr tumors (hNTS1R^+) on enhancing in vivo tumor targeting are shown.

CCCC[C@H](NC=O)C(=O)N[C@@H](CC(C)C)C(=O)N[C@@H](Cc1ccccc1)C(=O)N[C@@H](CCCC)C(=O)N[C@@H](Cc1ccc(O)cc1)C(=O)N[C@@H](CCCCNC(=O)CN1CCN(CC(=O)O)CCN(CC(=O)O)CCN(CC(=O)O)CC1)C(=O)O [[111In] CTP-1, For-Nle-Leu-Phe-Nle-Tyr-Lys(DOTA)-OH, metal not drawn] (For-[Nle]LF[Nle]YK(DOTA)-OH)
percentage of parent peptide remaining intact [1]: 2%

CCCC[C@H](NC(=O)[C@H](CO)NC(=O)[C@H](Cc1ccc(O)cc1)NC(=O)[C@H](CO)NC(=O)CN1CCN(CC(=O)O)CCN(CC(=O)O)CCN(CC(=O)O)CC1)C(=O)N[C@@H](CCC(=O)O)C(=O)N[C@@H](Cc1c[nH]cn1)C(=O)N[C@@H](Cc1ccccc1)C(=O)N[C@@H](CCCNC(=N)N)C(=O)N[C@@H](Cc1c[nH]c2ccccc12)C(=O)NCC(=O)N[C@@H](CCCCN)C(=O)N1CCC[C@H]1C(=O)N[C@H](C(N)=O)C(C)C [[111In]MSH-1, metal not drawn]
percentage of parent peptide remaining intact [1]: 52%

CCCC[C@H](NC(=O)[C@H](CO)NC(=O)[C@H](Cc1ccc(O)cc1)NC(=O)[C@H](CO)NC(=O)CN1CCN(CC(=O)O)CCN(CC(=O)O)CCN(CC(=O)O)CC1)C(=O)N[C@@H](CCC(=O)O)C(=O)N[C@@H](Cc1cnc[nH]1)C(=O)N[C@H](Cc1ccccc1)C(=O)N[C@@H](CCCN=C(N)N)C(=O)N[C@@H](Cc1c[nH]c2ccccc12)C(=O)NCC(=O)N[C@@H](CCCCN)C(=O)N1CCC[C@H]1C(=O)N[C@H](C(N)=O)C(C)C [[111In]MSH-2, (DOTA)Ser-Tyr-Ser-Nle-Glu-His-DPhe-Arg-Trp-Gly-Lys-Pro-Val-NH2, metal not drawn]
percentage of parent peptide remaining intact [1]: 77%

CSCC[C@H](NC(=O)[C@H](CC(C)C)NC(=O)CNC(=O)[C@H](Cc1ccccc1)NC(=O)[C@H](Cc1ccccc1)NC(=O)[C@H](CCC(N)=O)NC(=O)[C@H](CCC(N)=O)NC(=O)[C@@H]1CCCN1C(=O)[C@H](CCCCN)NC(=O)[C@@H]1CCCN1C(=O)[C@H](CCCNC(=N)N)NC(=O)CN1CCN(CC(=O)O)CCN(CC(=O)O)CCN(CC(=O)O)CC1)C(N)=O [[111In]SP-1, metal not drawn]
percentage of parent peptide remaining intact [1]: 7%

CC(C)C[C@H](NC(=O)CNC(=O)[C@H](Cc1ccccc1)NC(=O)[C@H](Cc1ccccc1)NC(=O)[C@H](CCC(N)=O)NC(=O)[C@H](CCC(N)=O)NC(=O)[C@@H]1CCCN1C(=O)[C@H](CCCCN)NC(=O)[C@@H]1CCCN1C(=O)[C@H](CCCNC(=N)N)NC(=O)CN1CCN(CC(=O)O)CCN(CC(=O)O)CCN(CC(=O)O)CC1)C(=O)N[C@@H](CCS(C)(=O)=O)C(N)=O [[111In]SP-2, metal not drawn]
percentage of parent peptide remaining intact [1]: 24%

CC(C)C[C@H](NC(=O)CN(C)C(=O)[C@H](Cc1ccccc1)NC(=O)[C@H](Cc1ccccc1)NC(=O)[C@H](CCC(N)=O)NC(=O)[C@H](CCC(N)=O)NC(=O)[C@@H]1CCCN1C(=O)[C@H](CCCCN)NC(=O)[C@@H]1CCCN1C(=O)[C@H](CCCNC(=N)N)NC(=O)CN1CCN(CC(=O)O)CCN(CC(=O)O)CCN(CC(=O)O)CC1)C(=O)N[C@@H](CCS(C)(=O)=O)C(N)=O [[111In]SP-3, metal not drawn]
percentage of parent peptide remaining intact [1]: 51%

CCNC(=O)[C@H](CC(C)C)NC(=O)[C@H](Cc1c[nH]cn1)NC(=O)CNC(=O)[C@@H](NC(=O)[C@H](C)NC(=O)[C@H](Cc1c[nH]c2ccccc12)NC(=O)[C@H](CCC(N)=O)NC(=O)[C@@H](Cc1ccccc1)NC(=O)COCC(=O)Nc1ccc(CC(CNCCN)CNCCN)cc1)C(C)C [[^99mTc]Demobesin 1, metal not drawn]
uptake in PC-3 tumor [2]: 12.73±0.93 % ID/g | in vitro stability in plasma [3]: high in vitro stability

CCCC[C@H](NC(=O)[C@H](CC(C)C)NC(=O)[C@H](Cc1c[nH]cn1)NC(=O)CNC(=O)[C@@H](NC(=O)[C@H](C)NC(=O)[C@H](Cc1c[nH]c2ccccc12)NC(=O)[C@H](CCC(N)=O)NC(=O)[C@H](CC(N)=O)NC(=O)CNC(=O)[C@H](Cc1ccc(O)cc1)NC(=O)[C@H](CCCN=C(N)N)NC(=O)[C@H](CCC(N)=O)NC(=O)[C@@H]1CCCN1C(=O)C(CNCCN)CNCCN)C(C)C)C(N)=O [[^99mTc]Demobesin 4, metal not drawn]
percentage of parent peptide remaining intact [1]: 26% | uptake in PC-3 tumor [2]: 11.26±1.81 % ID/g | in vitro stability in plasma [3]: very high

CC[C@H](C)[C@H](NC(=O)[C@H](Cc1ccc(O)cc1)NC(=O)[C@@H]1CCCN1C(=O)[C@H](CCCN=C(N)N)NC(=O)[C@H](CCCN=C(N)N)NC(=O)CNC(=O)C(CNCCN)CNCCN)C(=O)N[C@@H](CC(C)C)C(=O)O [[^99mTc]Demotensin 1, ^99mTc-N4-Gly-Arg-Arg-Pro-Tyr-Ile-Leu-OH, metal not drawn] (X1-GRRPYIL-OH)
uptake in WiDr tumor (WiDr tumors (hNTS1+); PA 300 μg): 4.58±0.47 % ID/g | uptake in WiDr tumor (WiDr tumors (hNTS1+); PA 300 μg + Lis (250 μg for Demotensin 6, 300 μg for Demotensin 1)): 7.71±1.19 % ID/g | uptake in WiDr tumor, blockade (WiDr tumors (hNTS1+); excess NT 100 μg blocker + 300 μg PA): 0.23±0.09 % ID/g | uptake in WiDr tumor (WiDr tumors (hNTS1+); non-treated controls): 1.20±0.21 % ID/g

CSCC[C@H](NC(=O)[C@H](CC(C)C)NC(=O)[C@H](Cc1c[nH]cn1)NC(=O)CNC(=O)[C@@H](NC(=O)[C@H](C)NC(=O)[C@H](Cc1c[nH]c2ccccc12)NC(=O)[C@H](Cc1c[nH]cn1)NC(=O)[C@H](CC(N)=O)NC(=O)CNC(=O)C(CNCCN)CNCCN)C(C)C)C(N)=O [[^99mTc]SAR-NC1, metal not drawn]
percentage of parent peptide remaining intact [1]: 30% | uptake in PC-3 tumor [2]: 6.51±1.91 % ID/g

CC(C)C[C@H](NC(=O)C[C@H](O)[C@H](CC(C)C)NC(=O)[C@H](Cc1c[nH]cn1)NC(=O)CNC(=O)[C@@H](NC(=O)[C@H](C)NC(=O)[C@H](Cc1c[nH]c2ccccc12)NC(=O)[C@H](CCC(N)=O)NC(=O)[C@@H](Cc1ccccc1)NC(=O)CCNC(=O)CCNC(=O)CN1CCN(CC(=O)O)CCN(CC(=O)O)CCN(CC(=O)O)CC1)C(C)C)C(N)=O [[^111In]JMV4168, [^111In]DOTA-βAla-βAla-DPhe-Gln-Trp-Ala-Val-Gly-His-Sta-Leu-NH2, metal not drawn]
uptake in PC-3 tumor [2]: 10.22±2.40 % ID/g | pancreas uptake [2]: remained very low

CCCC[C@H](NC(=O)[C@H](Cc1ccccc1)NC(=O)[C@H](Cc1c[nH]cn1)NC(=O)CCNC(=O)[C@@H](NC(=O)[C@H](C)NC(=O)[C@H](Cc1c[nH]c2ccccc12)NC(=O)[C@H](CCC(N)=O)NC(=O)[C@@H](Cc1ccc(O)cc1)NC(=O)COCCOCCNC(=O)CN1CCN(CC(=O)O)CCN(CC(=O)O)CCN(CC(=O)O)CC1)C(C)C)C(N)=O [[^111In]PanSarbesin 1, ^111In-DOTA-PEG2-DTyr-Gln-Trp-Ala-Val-βAla-His-Phe-Nle-NH2, metal not drawn] ({DOTA-AEEA}-[dY]QWAV[βAla]HF[Nle]-NH2)
percentage of parent peptide remaining intact [1]: 13% | uptake in PC-3 tumor [2]: 3.75±0.73 % ID/g
